The target of this experiment is mAb1 wild-type (monoclonal antibody IgG1) (human). The experiment can be described thus: SPR. In general terms: SPR reads the build-up and loss of mass on a sensor chip optically.

B1: recombinant mouse FcγRIV (receptor)
chain: GLQKAVVNLDPKWVRVLEEDSVTLRCQGTFSPEDNSIKWFHNESLIPHQDANYVIQSARVKDSGMYRCQTALSTISDPVQLEVHMGWLLLQTTKWLFQEGDPIHLRCHSWQNRPVRKVTYLQNGKGKKYFHENSELLIPKATHNDSGSYFCRGLIGHNNKSSASFRISLGDPGSPSMFPPWHQ
Take B1: the % of maximal binding response of wild-type antibody amounted to 100%.
